Measured values published in patent US20130189725A1, “HUMAN IN VITRO MODEL OF THE BLOOD CER[…] BARRIER” (RUPRECHT-KARLS-UNIVERSITAT HEIDELBERG, priority 2010, published 2013).

Tested on: HIBCPP monolayers
Assay: Paracellular permeability: FITC-inulin flux through HIBCPP layers on transwell filters
Type: in vitro ADME, human
Conditions: standard and inverted transwell filter system
Experimental: HIBCPP were cultured in a 1:1 mixture of DMEM medium and HAM's F12 medium, supplemented with 4 mM L-Glutamine, 5 μg/ml insulin, penicillin (100 U/ml) and streptomycin (100 μg/ml), and 15% (v/v) heat inactivated fetal calf serum (FCS) [HIBCPP-medium with 15% (v/v) FCS]. Since HIBCPP have been described to change doubling time with increasing passages, only cells between passage 33 and 37 were used. For filter-based assays, the amounts of cells indicated in the respective experiments were seeded on the filter membrane of transwell filters (pore diameter 3.0 μm, pore density 2.0×10^6 pores per cm^2, 0.33 cm^2; Greiner Bio-one, Frickenhausen, Germany). For the standard transwell filter system, cells were seeded into the upper well of the transwell filter. Subsequently, cells were washed once each of the following two days. Medium was added to the lower well not before day two after seeding. […]
Paracellular permeability of HIBCPP monolayers was determined by measuring the passage of a FITC-inulin (Sigma, Deisenhofen, Germany) tracer solution (100 μg/ml) from the apical to the basolateral compartment of transwell filters carrying the monolayers in a Tecan Infinite M200 Multiwell reader (Tecan, Switzerland) employing Magellan V6.6 software.

FITC-inulin
permeability for FITC-inulin (after day 0, simultaneously with development of a high TEER, 15%, 1% or no serum): below 1% | FITC-inulin flux (up to day 0 when TEER values are still low, tracer 100 μg/ml): ≥ 3%
